Measurements reported in the supplement of paper PMC11246515.
± gives the standard deviation of the averaged measurements.

Experiment: total protein half-life in vivo (active degradation + dilution); higher = more stable protein
[1] = E. coli NCM3722 delta-clpP delta-lon delta-hslV, growth: N-lim chemostat, doubling time 6 h
[2] = E. coli NCM3722 delta-clpP, growth: N-lim chemostat, doubling time 6 h
[3] = E. coli NCM3722 delta-hslV, growth: N-lim chemostat, doubling time 6 h
[4] = E. coli NCM3722 delta-lon, growth: N-lim chemostat, doubling time 6 h
[5] = E. coli NCM3722 delta-smpB, growth: N-lim chemostat, doubling time 6 h
[6] = wild type E. coli NCM3722, growth: C-lim chemostat, doubling time 3 h
[7] = wild type E. coli NCM3722, growth: C-lim chemostat, doubling time 6 h
[8] = wild type E. coli NCM3722, growth: C-lim chemostat, doubling time 12 h
[9] = wild type E. coli NCM3722, growth: N-lim chemostat, doubling time 6 h
[10] = wild type E. coli NCM3722, growth: N-lim chemostat, doubling time 12 h
[11] = wild type E. coli NCM3722, growth: P-lim chemostat, doubling time 6 h
[12] = wild type E. coli NCM3722, growth: P-lim chemostat, doubling time 12 h

Sequence	total protein half-life in vivo [1] [h]	total protein half-life in vivo [2] [h]	total protein half-life in vivo [3] [h]	total protein half-life in vivo [4] [h]	total protein half-life in vivo [5] [h]	total protein half-life in vivo [6] [h]	total protein half-life in vivo [7] [h]	total protein half-life in vivo [8] [h]	total protein half-life in vivo [9] [h]	total protein half-life in vivo [10] [h]	total protein half-life in vivo [11] [h]	total protein half-life in vivo [12] [h]
MTVRVAINGFGRIGRNVVRALYESGRRAEITVVAINELADAAGMAHLLKYDTSHGRFAWEVRQERDQLFVGDDAIRVLHERSLQSLPWRELGVDVVLDCTGVYGSREHGEAHIAAGAKKVLFSHPGSNDLDATVVYGVNQDQLRAEHRIVSNASCTTNCIIPVIKLLDDAYGIESGTVTTIHSAMHDQQVIDAYHPDLRRTRAASQSIIPVDTKLAAGITRFFPQFNDRFEAIAVRVPTINVTAIDLSVTVKKPVKANEVNLLLQKAAQGAFHGIVDYTELPLVSVDFNHDPHSAIVDGTQTRVSGAHLIKTLVWCDNEWGFANRMLDTTLAMATVAFR [P0A9B6]	4.55 ± 0.44	5.54 ± 2.7	4.07 ± 1.2	4.77 ± 1.6	3.65 ± 0.18	2.85 ± 0.086	5.08 ± 0.25	8.49 ± 0.63	3.49 ± 0.19	5.94 ± 0.99	5.48 ± 0.15	10 ± 0.75
MVDKSQETTHFGFQTVAKEQKADMVAHVFHSVASKYDVMNDLMSFGIHRLWKRFTIDCSGVRRGQTVLDLAGGTGDLTAKFSRLVGETGKVVLADINESMLKMGREKLRNIGVIGNVEYVQANAEALPFPDNTFDCITISFGLRNVTDKDKALRSMYRVLKPGGRLLVLEFSKPIIEPLSKAYDAYSFHVLPRIGSLVANDADSYRYLAESIRMHPDQDTLKAMMQDAGFESVDYYNLTAGVVALHRGYKF [P0A887]	5.402 ± 0.0099	4.951 ± 0.013	4.18 ± 0.12	4.9 ± 0.36	4.19 ± 0.076	2.405 ± 0.0086	4.67 ± 0.086	7.96 ± 0.38	4.36 ± 0.36	8.27 ± 1.5	4.45 ± 0.31	8.773 ± 0.069
MVDQAQDTLRPNNRLSDMQATMEQTQAFENRVLERLNAGKTVRSFLITAVELLTEAVNLLVLQVFRKDDYAVKYAVEPLLDGDGPLGDLSVRLKLIYGLGVINRQEYEDAELLMALREELNHDGNEYAFTDDEILGPFGELHCVAALPPPPQFEPADSSLYAMQIQRYQQAVRSTMVLSLTELISKISLKKAFQK [P0AF10]	4.34 ± 0.54	–	–	4.01	3.44	2.48 ± 0.33	4.42 ± 0.24	12.5 ± 1.4	3.54	5.95 ± 0.25	4.55	12.2 ± 2
MVEDILAPGLRVVFCGINPGLSSAGTGFPFAHPANRFWKVIYQAGFTDRQLKPQEAQHLLDYRCGVTKLVDRPTVQANEVSKQELHAGGRKLIEKIEDYQPQALAILGKQAYEQGFSQRGAQWGKQTLTIGSTQIWVLPNPSGLSRVSLEKLVEAYRELDQALVVRGR [P0A9H1]	5.34 ± 0.42	5.22 ± 0.42	6.31 ± 1.5	5.677 ± 0.045	4.88 ± 0.35	3.1514 ± 0.00069	5.79 ± 0.27	12.1 ± 1.1	5.18 ± 0.47	8.94 ± 0.12	5.74 ± 0.3	11.7 ± 0.27
MVELKEPLATLWRGKDAFAEVKKLNGEVFRELETRRTLRFELSGKSYFLKWHKGTTLKEIIKNLLSLRMPVLGADREWHAIHRLSDVGVDTMKGIGFGEKGLNPLTRASFIITEDLTPTISLEDYCADWAVNPPDIRVKRMLIARVATMVRKMHTAGINHRDCYICHFLLHLPFTGREDELKISVIDLHRAQIRAKVPRRWRDKDLIGLYFSSMNIGLTQRDIWRFMKVYFGMPLRKILSLEQNLLNMASVKAERIKERTQRKGL	6.12 ± 0.57	6.03 ± 0.16	6.41 ± 0.56	5.58 ± 0.54	5.92 ± 0.2	3.02 ± 0.17	6.68 ± 0.36	11.5 ± 0.34	5.76 ± 0.48	11.4 ± 1.2	5.94 ± 0.41	12 ± 0.44
MVFRIASSPYTHNQRQTSRIMLLVLLAAVPGIAAQLWFFGWGTLVQILLASVSALLAEALVLKLRKQSVAATLKDNSALLTGLLLAVSIPPLAPWWMVVLGTVFAVIIAKQLYGGLGQNPFNPAMIGYVVLLISFPVQMTSWLPPHEIAVNIPGFIDAIQVIFSGHTASGGDMNTLRLGIDGISQATPLDTFKTSVRAGHSVEQIMQYPIYSGILAGAGWQWVNLAWLAGGVWLLWQKAIRWHIPLSFLVTLALCAMLGWLFSPETLAAPQIHLLSGATMLGAFFILTDPVTASTTNRGRLIFGALAGLLVWLIRSFGGYPDGVAFAVLLANITVPLIDYYTRPRVYGHRKG	7.06	–	–	–	–	> 4	–	13 ± 0.93	6.53	9.64	–	13 ± 1.1
MVINCAFIGFGKSTTRYHLPYVLNRKDSWHVAHIFRRHAKPEEQAPIYSHIHFTSDLDEVLNDPDVKLVVVCTHADSHFEYAKRALEAGKNVLVEKPFTPTLAQAKELFALAKSKGLTVTPYQNRRFDSCFLTAKKAIESGKLGEIVEVESHFDYYRPVAETKPGLPQDGAFYGLGVHTMDQIISLFGRPDHVAYDIRSLRNKANPDDTFEAQLFYGDLKAIVKTSHLVKIDYPKFIVHGKKGSFIKYGIDQQETSLKANIMPGEPGFAADDSVGVLEYVNDEGVTVREEMKPEMGDYGRVYDALYQTITHGAPNYVKESEVLTNLEILERGFEQASPSTVTLAK	5.85 ± 0.38	4.79 ± 0.2	5.38 ± 0.92	4.78 ± 0.095	4.91 ± 0.26	3.04 ± 0.12	5.58 ± 0.54	11.6 ± 0.32	4.75 ± 0.06	8.63 ± 0.17	5.842 ± 0.057	12.3 ± 1.1
MVISIRRSRHEEGEELVAIWCRSVDATHDFLSAEYRTELEDLVRSFLPEAPLWVAVNERDQPVGFMLLSGQHMDALFIDPDVRGCGVGRVLVEHALSMAPELTTNVNEQNEQAVGFYKKVGFKVTGRSEVDDLGKPYPLLNLAYVGA	3.78	–	–	–	–	–	–	–	–	–	–	–
MVKERKTELVEGFRHSVPYINTHRGKTFVIMLGGEAIEHENFSSIVNDIGLLHSLGIRLVVVYGARPQIDANLAAHHHEPLYHKNIRVTDAKTLELVKQAAGTLQLDITARLSMSLNNTPLQGAHINVVSGNFIIAQPLGVDDGVDYCHSGRIRRIDEDAIHRQLDSGAIVLMGPVAVSVTGESFNLTSEEIATQLAIKLKAEKMIGFCSSQGVTNDDGDIVSELFPNEAQARVEAQEEKGDYNSGTVRFLRGAVKACRSGVRRCHLISYQEDGALLQELFSRDGIGTQIVMESAEQIRRATINDIGGILELIRPLEQQGILVRRSREQLEMEIDKFTIIQRDNTTIACAALYPFPEEKIGEMACVAVHPDYRSSSRGEVLLERIAAQAKQSGLSKLFVLTTRSIHWFQERGFTPVDIDLLPESKKQLYNYQRKSKVLMADLG [P0A6C5]	4.95 ± 0.5	3.02 ± 0.23	2.23 ± 0.15	3.628 ± 0.028	1.13 ± 0.066	1.99 ± 0.036	3.29 ± 0.41	5.24 ± 0.21	2.59 ± 0.25	4.01 ± 0.54	4.56 ± 0.38	8.35 ± 0.32
